Source: publication PMC2192206

Molecular target: lymphocyte function associated-1 (LFA-1, CD11a/CD18) (UniProt P20701)
Test: radioligand binding

lymphocyte function associated-1 (LFA-1, CD11a/CD18), sequence (P20701 26-1170, chain 1 of 2): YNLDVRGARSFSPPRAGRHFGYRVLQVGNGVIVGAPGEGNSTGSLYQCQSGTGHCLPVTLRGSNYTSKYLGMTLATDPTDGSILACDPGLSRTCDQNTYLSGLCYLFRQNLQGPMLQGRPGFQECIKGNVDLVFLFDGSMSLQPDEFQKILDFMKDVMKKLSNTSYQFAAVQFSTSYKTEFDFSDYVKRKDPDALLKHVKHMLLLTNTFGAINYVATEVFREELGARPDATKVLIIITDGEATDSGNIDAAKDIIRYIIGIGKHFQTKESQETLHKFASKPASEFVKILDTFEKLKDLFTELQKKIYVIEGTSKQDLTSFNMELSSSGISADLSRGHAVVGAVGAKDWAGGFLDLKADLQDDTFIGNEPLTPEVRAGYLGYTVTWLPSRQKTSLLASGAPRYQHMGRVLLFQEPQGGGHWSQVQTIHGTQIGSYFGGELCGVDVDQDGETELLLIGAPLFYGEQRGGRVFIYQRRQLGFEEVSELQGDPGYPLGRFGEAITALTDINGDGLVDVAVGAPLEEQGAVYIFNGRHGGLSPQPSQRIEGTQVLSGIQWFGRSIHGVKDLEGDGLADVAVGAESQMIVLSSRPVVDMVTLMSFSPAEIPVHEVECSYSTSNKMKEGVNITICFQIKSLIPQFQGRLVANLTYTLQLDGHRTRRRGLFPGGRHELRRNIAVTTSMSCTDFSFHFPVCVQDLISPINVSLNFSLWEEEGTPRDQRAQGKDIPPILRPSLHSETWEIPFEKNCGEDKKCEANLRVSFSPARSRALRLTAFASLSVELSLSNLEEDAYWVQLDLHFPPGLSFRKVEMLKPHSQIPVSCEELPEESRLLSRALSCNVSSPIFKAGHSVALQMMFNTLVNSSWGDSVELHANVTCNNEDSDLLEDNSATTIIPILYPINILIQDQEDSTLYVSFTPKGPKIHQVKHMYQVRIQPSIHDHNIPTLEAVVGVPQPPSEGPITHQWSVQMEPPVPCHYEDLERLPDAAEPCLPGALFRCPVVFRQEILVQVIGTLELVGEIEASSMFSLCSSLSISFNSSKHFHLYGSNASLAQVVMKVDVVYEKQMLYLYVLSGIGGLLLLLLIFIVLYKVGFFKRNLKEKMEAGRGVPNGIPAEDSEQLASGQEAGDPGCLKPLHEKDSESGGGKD
lymphocyte function associated-1 (LFA-1, CD11a/CD18), sequence (P05107 23-769, chain 2 of 2, further chain): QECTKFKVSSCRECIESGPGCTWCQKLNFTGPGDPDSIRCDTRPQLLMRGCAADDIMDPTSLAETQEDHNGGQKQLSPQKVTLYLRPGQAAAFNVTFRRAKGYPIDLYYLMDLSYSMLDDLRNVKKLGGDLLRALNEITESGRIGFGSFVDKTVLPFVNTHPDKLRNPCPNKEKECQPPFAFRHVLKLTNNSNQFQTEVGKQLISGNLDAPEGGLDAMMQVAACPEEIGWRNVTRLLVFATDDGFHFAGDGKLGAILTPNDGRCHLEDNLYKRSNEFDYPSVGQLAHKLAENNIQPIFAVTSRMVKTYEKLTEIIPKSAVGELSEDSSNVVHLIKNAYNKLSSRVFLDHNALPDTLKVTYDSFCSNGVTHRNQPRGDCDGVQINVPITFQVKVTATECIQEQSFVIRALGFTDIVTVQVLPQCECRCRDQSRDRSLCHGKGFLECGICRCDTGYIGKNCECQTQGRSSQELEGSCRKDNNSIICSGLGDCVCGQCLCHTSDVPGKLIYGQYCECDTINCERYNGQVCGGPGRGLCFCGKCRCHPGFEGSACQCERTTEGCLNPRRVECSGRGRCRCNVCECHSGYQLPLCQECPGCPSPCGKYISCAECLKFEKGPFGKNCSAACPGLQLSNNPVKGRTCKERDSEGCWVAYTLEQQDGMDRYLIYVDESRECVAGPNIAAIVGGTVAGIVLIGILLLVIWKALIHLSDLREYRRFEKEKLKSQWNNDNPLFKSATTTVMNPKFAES

Substance: ICAM-1-HA dimer (from UniProt P05362 28-480) (complex)
- KD of the high affinity component: 8 nM
